# Source: US20160177324A1, “NOVEL PROTEIN AND GENE RELATED TO FLAVONOID O-METHYLTRANSFERASE (FOMT) AND THEIR USES THEREFORE” (INSTITUTE OF BOTANY, THE CHINESE ACADEMY OF SCIENCES, priority 2013, published 2016)
# Tested on: Nicotiana tabacum cv.Nc89
# Assay: Flavonoid O-methyltransferase activity in transgenic tobacco
# Format: in vivo
# Text: The full length genes were introduced with a BamHl site and an XhoI site on 5′- and 3′-end by PCR with primers SEQ No. 5 & 6. The double digested fragment of interest and eukaryotic expression vector pBI121 with BamHl site and an XhoI were ligated. Then the appropriate constructs were introduced into Agrobacterium strain EHA105 by electroporation.
# Leaf of Nicotiana tabacum cv.Nc89 plant (Donated by Professor Silan Dai, Beijing Forestry University) was disinfected by 75% ethanol for 30 s, followed by 2% sodium hypochlorite for 3 minutes, and then washed with sterile water for three times. The leaf was cut into squares (25 mm^2) A single colony of Agrobacterium strain EHA105 with pBI121-FOMT construct was used to inoculate with 2 mL of YEB medium (per liter: 5 g of beef extract, 1 g of yeast extract, 5 g of sucrose, and 0.5 g of MgSO4.7H2O), supplemented with 50 mg mL^−1 kanamycin and 25 mg mL^−1 Rifampicin. The culture was incubated at 28° C. until OD600 0.6-0.8, and the bacteria were pelleted by centrifugation at 5000 rpm for 5 minutes. The cells were washed by MS liquid medium and resuspended pellets with appropriate volume of MS liquid. The tobacco leaf squares were dipped into the bacteria solution for 8 minutes and cultivated on MS media containing 2.0 mg L^−1 6-benzylaminopurine (6-BA), 0.2 mg L^−1 1-naphthylacetic acid (NAA), and 500 mg L^−1 ceflomine. The explants were transferred to fresh selected medium after two weeks. When the regenerating plantlets grow to 2 cm, move them to MS media containing 0.2 mg L^−1 NAA to induce root. After four weeks, the transgenic tobacco plantlets were transferred to pots and kept in the greenhouse till flowering. The positive transgenic lines were selected by PCR, and transgenic plantlets with empty plasmid were used as control. The anthocyanins in transgenic petals were detected with an HPLC system.
# Appropriate amount of sample (petal, fruits) was powdered with mortars and pestles and extracted for the first time with 2 mL 2% (v/v) formic acid methanol solution shaken in a QL-861 vortex (Kylinbell Lab Instruments, Jiangsu, China), sonicated in KQ-500DE ultrasonic cleaner (Ultrasonic instruments, Jiangsu Kunshan, China) at 20° C. for 20 min, centrifuged in SIGMA 3K30 (SIGMA centrifugers, Germany) (12000 rpm, 10 min), and the supernatant was collected. Additional 2 mL and 1 mL extraction solution was supplemented to the residue, and repeated aforesaid operation for the second and third times. All extract was pooled and filtrated through 0.22 μm reinforced nylon membrane filters (Shanghai ANPEL, Shanghai, China) before the HPLC-DAD and HPLC-ESI-MS^n analyses. Three replicates were performed for each sample. […]
# HPLC-ESI-MS^n analysis was carried with an Agilent-1100 HPLC system equipped with a UV detector coupled to a LC-MSD Trap VL ion-trap mass spectrometer via an ESI source (Agilent Technologies, Palo Alto, Calif.). […] The MS conditions were listed as follow: negative-ion (NI) mode; capillary voltage of 3.5 kV; a nebulization pressure of 241.3 kPa; and a gas (N2) temperature of 350° C. with flow rate of 6.0 L min^−1 Capillary offset voltage was 77.2 V. MS spectra were recorded over the range from m/z 50-1000.
molecule,measurement,setting,value
"PsFOMT: flavonoid O-methyltransferase from tree peony Paeonia suffruticosa cv. 'Gunpohden', SEQ ID NO: 3; recombinant MBP fusion protein (protein, listed as Paeonia suffruticosa, MBP fusion, recombinant MBP fusion protein) MAESDRKGILKSEALLKYILETSVYPREHEQLKQLRQATVDKYKYWSVMNVPADEGQFLSMLLKIMNAKKTIEVGVFTGYSLLTAALALPTDAKITAIDPDGEAYETGLPFIKKAGVEHKINYIQADAMSVLDDLVTNGKEEGSFDFAFVDADKENYAKYHEPLMKLVKIGGIIGYDNTLWFGSVALSDGDEMKEFQEKGRRIFREFNTFLAADPRIELAHISIGDGLALCRRLY",flower color compared with control lines,transgenic tobacco flowers,tend to purplish
same,methyltransferase function in tobacco petal (new anthocyanin Pn3R detected),transgenic tobacco petals vs empty vector,performed as a methyltransferase
same,content of peonidin 3-O-rutinoside (Pn3R) in total anthocyanin (TA),"transgenic tobacco petals, 35S:: lines",much higher
